How the values were obtained:
Int^C-mCitrine-Tom7 = assay: protein trans-splicing
Int^C-mCitrine-hFis1 = assay: protein trans-splicing

Tom20-mCherry-Int^N
percent of Tom20-FP1 spliced to the partner (Int^C-mCitrine-Tom7): 30%
percent of Tom20-FP1 spliced to the partner (Int^C-mCitrine-hFis1): 50%

— PMC8684756
